Test results as given in publication PMC2233640, “Human NCU-G1 can function as a transcription factor and as a nuclear receptor co-activator”.

Biological target: T1, NCU-G1 (kidney predominant protein), GST fusion (Homo sapiens, UniProt Q8WWB7 1-406)
T1 sequence: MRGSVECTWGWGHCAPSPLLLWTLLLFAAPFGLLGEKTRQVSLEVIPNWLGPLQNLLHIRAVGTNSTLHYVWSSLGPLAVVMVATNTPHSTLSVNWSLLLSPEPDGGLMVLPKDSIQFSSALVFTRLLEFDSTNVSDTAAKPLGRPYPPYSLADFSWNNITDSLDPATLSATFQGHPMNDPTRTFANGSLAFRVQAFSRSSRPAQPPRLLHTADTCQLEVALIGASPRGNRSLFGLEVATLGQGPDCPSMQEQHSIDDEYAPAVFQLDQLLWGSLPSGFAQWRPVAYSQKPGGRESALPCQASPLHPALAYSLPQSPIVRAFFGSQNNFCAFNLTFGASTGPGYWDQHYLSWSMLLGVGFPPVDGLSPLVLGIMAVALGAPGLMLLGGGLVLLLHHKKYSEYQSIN
Assay: competition; 50-fold molar excess unlabeled vs 32P-FP1, EMSA; EMSA: 3 x 10^4 cpm 32P probe with 2 ug GST-NCU-G1; buffer, salt, pH and temperature not given (as described in ref 17)
Details: protein: recombinant; tags: N-terminal GST (pGEX-5X-3); double-stranded

B1: AP1 oligonucleotide (dsDNA)
DNA 1: CGCTTGATGACTCAGCCGGAA
DNA 2: TTCCGGCTGAGTCATCAAGCG
  binding result: no binding
